B1: Voltage-dependent calcium channel gamma-2 subunit (Homo sapiens), Q9Y698 (parent)
chain: MGLFDRGVQMLLTTVGAFAAFSLMTIAVGTDYWLYSRGVCKTKSVSENETSKKNEEVMTHSGLWRTCCLEGNFKGLCKQIDHFPEDADYEADTAEYFLRAVRASSIFPILSVILLFMGGLCIAASEFYKTRHNIILSAGIFFVSAGLSNIIGIIVYISANAGDPSKSDSKKNSYSYGWSFYFGALSFIIAEMVGVLAVHMFIDRHKQLRATARATDYLQASAITRIPSYRYRYQRRSRSSSRSTEPSHSRDASPVGIKGFNTLPSTEISMYTLSRDPLKAATTPTATYNSDRDNSFLQVHNCIQKENKDSLHSNTANRRTTPV

Variants of: B1
Details: with gria1_rat Gria1, P19490
Chain of gria1_rat Gria1, P19490 (P19490 whole entry): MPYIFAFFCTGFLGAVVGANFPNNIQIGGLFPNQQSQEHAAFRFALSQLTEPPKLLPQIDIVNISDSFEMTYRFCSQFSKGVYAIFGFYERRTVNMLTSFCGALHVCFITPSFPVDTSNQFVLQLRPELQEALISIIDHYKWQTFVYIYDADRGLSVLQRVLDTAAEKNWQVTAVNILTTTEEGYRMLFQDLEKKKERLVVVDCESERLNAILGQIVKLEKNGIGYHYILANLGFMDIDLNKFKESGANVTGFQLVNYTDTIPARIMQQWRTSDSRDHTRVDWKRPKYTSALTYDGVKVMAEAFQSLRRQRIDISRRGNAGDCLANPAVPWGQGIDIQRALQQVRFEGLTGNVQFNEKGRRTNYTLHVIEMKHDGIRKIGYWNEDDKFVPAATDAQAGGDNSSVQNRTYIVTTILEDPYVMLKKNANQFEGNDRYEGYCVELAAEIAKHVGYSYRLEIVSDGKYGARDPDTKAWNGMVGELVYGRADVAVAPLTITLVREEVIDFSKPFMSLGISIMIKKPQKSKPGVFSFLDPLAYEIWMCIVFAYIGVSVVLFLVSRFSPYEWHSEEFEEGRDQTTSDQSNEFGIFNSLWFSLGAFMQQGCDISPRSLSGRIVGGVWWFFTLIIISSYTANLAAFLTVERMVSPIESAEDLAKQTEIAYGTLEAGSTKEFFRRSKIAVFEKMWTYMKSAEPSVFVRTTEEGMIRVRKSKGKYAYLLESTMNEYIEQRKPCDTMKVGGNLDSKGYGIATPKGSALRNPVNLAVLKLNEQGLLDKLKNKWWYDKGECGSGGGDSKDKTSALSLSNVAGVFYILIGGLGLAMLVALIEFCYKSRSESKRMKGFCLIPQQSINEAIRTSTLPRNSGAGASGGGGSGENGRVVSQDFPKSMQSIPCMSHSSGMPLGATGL

Variant	effect of a mutation on the interaction
C302S	decreasing interaction

Source: IntAct's records for PubMed 19805317
